Laboratory results as given in PMC6719084 (2019).

Key:
Assay in all cases: FP
[1] = molecular target: T1, MCL-1ΔNΔC
T1 chain: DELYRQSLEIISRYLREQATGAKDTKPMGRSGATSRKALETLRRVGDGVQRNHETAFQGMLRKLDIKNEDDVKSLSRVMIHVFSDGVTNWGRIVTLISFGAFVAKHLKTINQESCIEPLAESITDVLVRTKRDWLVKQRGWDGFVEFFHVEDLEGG

[2] = molecular target: BCL-XLΔC
[3] = molecular target: T2, BCL-WΔC
T2 chain: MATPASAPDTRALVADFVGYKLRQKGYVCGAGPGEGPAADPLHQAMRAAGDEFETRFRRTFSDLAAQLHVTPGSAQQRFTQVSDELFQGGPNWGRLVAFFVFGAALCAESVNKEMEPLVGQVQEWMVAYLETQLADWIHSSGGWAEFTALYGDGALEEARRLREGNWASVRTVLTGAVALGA

[4] = molecular target: BCL-2ΔC

B1: FITC-BIM_(A,cath,K)PA2 (BIMA, valine-citrulline cathepsin-cleavable linker, five lysines, DSPE-PEG(2000) lipid tail) (peptide)
chain: IWIAQELRRIGDEFNAYYARRVXKKKKK
modifications: fluorescein isothiocyanate (FITC) on the N-terminus; citrulline after the linker's valine (written X in the letters); DSPE-PEG(2000)-succinyl lipid tail on the side chain of the C-terminal lysine
[1]
  Kd: 453 nM
[2]
  Kd: 165 nM
[3]
  Kd: 247 nM
[4]
  Kd: 187 nM
